Like-named read-outs stand apart in the source and are kept apart here. Values belong to the binder of their own block, whether it stands above or below them.
Experiments:
activin A [1] = target: T1, activin A (UniProt P08476 311-426); test: Biacore SPR
T1 sequence (looked up): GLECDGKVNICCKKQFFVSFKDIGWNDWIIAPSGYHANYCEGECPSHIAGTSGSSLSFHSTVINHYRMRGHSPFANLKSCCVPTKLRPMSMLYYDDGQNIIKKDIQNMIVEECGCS
Experimental: (§1) Ligands were injected and allowed to flow over the captured receptor protein.

activin B [2] = target: T2, activin B (UniProt P09529 293-407); test: Biacore SPR
T2 sequence (looked up): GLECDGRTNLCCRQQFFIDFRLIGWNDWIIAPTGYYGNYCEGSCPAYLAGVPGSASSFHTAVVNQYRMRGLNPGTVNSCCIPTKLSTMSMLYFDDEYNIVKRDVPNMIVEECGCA
Experimental: as §1

activin AB = target: T3, activin AB (UniProt P08476 311-426; P09529 293-407); test: Biacore SPR
T3 sequence (looked up) 1: T1 sequence (looked up)
T3 sequence (looked up) 2: T2 sequence (looked up)
Experimental: as §1

BMP10 [3] = target: T4, BMP10 (UniProt O95393 317-424); test: Biacore SPR
T4 sequence (looked up): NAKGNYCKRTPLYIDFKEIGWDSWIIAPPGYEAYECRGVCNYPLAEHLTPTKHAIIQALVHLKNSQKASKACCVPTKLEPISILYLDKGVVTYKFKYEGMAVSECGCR
Experimental: as §1

BMP15 = target: T5, BMP15 (UniProt O95972 268-392); test: Biacore SPR
T5 construct: also called GDF9b
T5 sequence (looked up): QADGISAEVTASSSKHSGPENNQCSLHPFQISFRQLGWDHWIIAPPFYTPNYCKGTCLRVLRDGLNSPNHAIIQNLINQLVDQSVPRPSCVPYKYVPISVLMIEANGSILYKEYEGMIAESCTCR
Experimental: as §1

BMP9 = target: T6, BMP9 (UniProt Q9UK05 320-429); test: Biacore SPR; kinetics indeterminate (transient)
T6 construct: also called GDF2
T6 sequence (looked up): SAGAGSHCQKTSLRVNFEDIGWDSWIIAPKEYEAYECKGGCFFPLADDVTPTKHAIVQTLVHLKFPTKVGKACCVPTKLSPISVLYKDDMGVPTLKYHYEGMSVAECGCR
Experimental: as §1

activin A [4] = target: T1, activin A; test: Biacore SPR; remark: listed apart in the source
Experimental: as §1

activin B [5] = target: T2, activin B; test: Biacore SPR; remark: listed apart in the source
Experimental: as §1

BMP2 = BMP2 (UniProt P12643 283-396); test: Biacore SPR
Experimental: as §1

BMP4 = target: T7, BMP4 (UniProt P12644 293-408); test: Biacore SPR
T7 sequence (looked up): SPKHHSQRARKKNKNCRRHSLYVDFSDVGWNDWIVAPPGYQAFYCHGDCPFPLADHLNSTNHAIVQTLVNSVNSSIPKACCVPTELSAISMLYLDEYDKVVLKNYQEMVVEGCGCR
Experimental: as §1

BMP5 = target: T8, BMP5 (UniProt P22003 317-454, limits assumed); test: Biacore SPR
T8 sequence (looked up): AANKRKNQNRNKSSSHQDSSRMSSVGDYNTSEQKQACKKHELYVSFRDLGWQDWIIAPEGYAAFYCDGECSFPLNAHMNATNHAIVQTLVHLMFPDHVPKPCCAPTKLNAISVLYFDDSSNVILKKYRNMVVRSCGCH
Experimental: as §1

BMP6 = target: T9, BMP6 (UniProt P22004 382-513, limits assumed); test: Biacore SPR
T9 sequence (looked up): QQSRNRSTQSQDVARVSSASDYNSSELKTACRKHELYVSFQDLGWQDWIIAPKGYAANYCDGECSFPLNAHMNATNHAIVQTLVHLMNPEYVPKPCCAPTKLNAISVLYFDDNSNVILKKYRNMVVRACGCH
Experimental: as §1

BMP7 = target: T10, BMP7 (UniProt P18075 293-431); test: Biacore SPR
T10 sequence (looked up): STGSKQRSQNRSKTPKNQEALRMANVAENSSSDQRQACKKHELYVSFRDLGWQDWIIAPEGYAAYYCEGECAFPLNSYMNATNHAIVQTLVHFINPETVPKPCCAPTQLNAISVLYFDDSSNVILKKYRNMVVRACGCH
Experimental: as §1

BMP10 [6] = target: T4, BMP10; test: Biacore SPR; remark: listed apart in the source
Experimental: as §1

GDF3 = target: T11, GDF3 (UniProt Q9NR23 251-364); test: Biacore SPR
T11 sequence (looked up): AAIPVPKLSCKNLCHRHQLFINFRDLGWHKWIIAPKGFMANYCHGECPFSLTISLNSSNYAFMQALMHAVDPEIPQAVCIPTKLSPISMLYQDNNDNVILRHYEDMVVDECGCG
Experimental: as §1

GDF5 = target: T12, GDF5 (UniProt P43026 382-501); test: Biacore SPR
T12 construct: also called BMP14
T12 sequence (looked up): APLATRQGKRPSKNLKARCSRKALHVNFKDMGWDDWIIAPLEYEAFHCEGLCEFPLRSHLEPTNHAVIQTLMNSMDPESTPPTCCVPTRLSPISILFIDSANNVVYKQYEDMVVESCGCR
Experimental: as §1

GDF6 = target: T13, GDF6 (UniProt Q6KF10 336-455, limits assumed); test: Biacore SPR
T13 construct: also called BMP13
T13 sequence (looked up): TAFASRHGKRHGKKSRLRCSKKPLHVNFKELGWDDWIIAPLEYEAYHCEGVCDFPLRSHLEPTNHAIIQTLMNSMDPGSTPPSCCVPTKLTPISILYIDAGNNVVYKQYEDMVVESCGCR
Experimental: as §1

GDF7 = target: T14, GDF7 (UniProt Q7Z4P5 322-450, limits assumed); test: Biacore SPR
T14 construct: also called BMP12
T14 sequence (looked up): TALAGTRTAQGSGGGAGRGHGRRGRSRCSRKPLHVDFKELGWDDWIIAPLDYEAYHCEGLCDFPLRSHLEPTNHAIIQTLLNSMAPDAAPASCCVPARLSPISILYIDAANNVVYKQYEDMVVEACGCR
Experimental: as §1

GDF8 = target: T15, GDF8 (UniProt O14793 267-375); test: Biacore SPR
T15 construct: also called myostatin
T15 sequence (looked up): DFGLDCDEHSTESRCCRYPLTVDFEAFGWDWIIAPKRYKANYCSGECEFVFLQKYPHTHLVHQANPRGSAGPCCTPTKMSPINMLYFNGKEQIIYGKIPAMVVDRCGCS
Experimental: as §1

GDF11 = target: T16, GDF11 (UniProt O95390 299-407); test: Biacore SPR
T16 construct: also called BMP11
T16 sequence (looked up): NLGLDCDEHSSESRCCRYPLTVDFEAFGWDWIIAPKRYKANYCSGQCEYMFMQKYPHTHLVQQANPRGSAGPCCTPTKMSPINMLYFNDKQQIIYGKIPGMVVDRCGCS
Experimental: as §1

BMP2, sequence (P12643 283-396 limits assumed): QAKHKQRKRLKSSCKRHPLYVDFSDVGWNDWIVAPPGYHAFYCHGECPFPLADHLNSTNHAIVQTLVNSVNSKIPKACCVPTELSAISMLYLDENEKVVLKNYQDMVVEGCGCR

Kd (activin A [1]): 1100 pM
koff (activin A [1]): 0.0022 s⁻¹
kon (activin A [1]): 2e+06 M⁻¹ s⁻¹
Kd (activin B [2]): 1700 pM
koff (activin B [2]): 0.0026 s⁻¹
kon (activin B [2]): 1.6e+06 M⁻¹ s⁻¹
Kd (activin AB): 140 pM
koff (activin AB): 0.0005 s⁻¹
kon (activin AB): 3.6e+06 M⁻¹ s⁻¹
Kd (BMP10 [3]): 2200 pM
koff (BMP10 [3]): 0.0018 s⁻¹
kon (BMP10 [3]): 800000 M⁻¹ s⁻¹
Kd (BMP15): 1700 pM
koff (BMP15): 0.048 s⁻¹
kon (BMP15): 2.8e+07 M⁻¹ s⁻¹
Kd (BMP9): > 140000 pM
B1: BMPRII-Fc:ALK4-Fc heterodimer (Fc fusion)
chain 1: SQNQERLCAFKDPYQQDLGIGESRISHENGTILCSKGSTCYGLWEKSKGDINLVKQGCWSHIGDPQECHYEECVVTTTPPSIQNGTYRFCCCSTDLCNVNFTENFPPPDTTPLSPPHSFNRDETGGGTHTCPPCPAPELLGGPSVFLFPPKPKDTLMISRTPEVTCVVVDVSHEDPEVKFNWYVDGVEVHNAKTKPREEQYNSTYRVVSVLTVLHQDWLNGKEYKCKVSNKALPAPIEKTISKAKGQPREPQVYTLPPSRKEMTKNQVSLTCLVKGFYPSDIAVEWESNGQPENNYKTTPPVLKSDGSFFLYSKLTVDKSRWQQGNVFSCSVMHEALHNHYTQKSLSLSPGK
chain 2: SGPRGVQALLCACTSCLQANYTCETDGACMVSIFNLDGMEHHVRTCIPKVELVPAGKPFYCLSSEDLRNTHCCYTDYCNRIDLRVPSGHLKEPEHPSMWGPVETGGGTHTCPPCPAPELLGGPSVFLFPPKPKDTLMISRTPEVTCVVVDVSHEDPEVKFNWYVDGVEVHNAKTKPREEQYNSTYRVVSVLTVLHQDWLNGKEYKCKVSNKALPAPIEKTISKAKGQPREPQVYTLPPSREEMTKNQVSLTCLVKGFYPSDIAVEWESNGQPENNYDTTPPVLDSDGSFFLYSDLTVDKSRWQQGNVFSCSVMHEALHNHYTQKSLSLSPG
notes: C-terminal Lys optional; also called BMPRII-Fc:ALK4-Fc heterodimeric complex

Kd (activin A [4]): 150 pM
koff (activin A [4]): 0.005 s⁻¹
kon (activin A [4]): 3.4e+07 M⁻¹ s⁻¹
Kd (activin B [5]): 200 pM
koff (activin B [5]): 0.00057 s⁻¹
kon (activin B [5]): 2.8e+06 M⁻¹ s⁻¹
Kd (BMP2): 1 pM
koff (BMP2): 1.1e-05 s⁻¹
kon (BMP2): 8e+06 M⁻¹ s⁻¹
Kd (BMP4): 3 pM
koff (BMP4): 6.5e-06 s⁻¹
kon (BMP4): 2.6e+06 M⁻¹ s⁻¹
Kd (BMP5): 640 pM
koff (BMP5): 0.00058 s⁻¹
kon (BMP5): 900000 M⁻¹ s⁻¹
Kd (BMP6): 15 pM
koff (BMP6): 0.00029 s⁻¹
kon (BMP6): 2e+07 M⁻¹ s⁻¹
Kd (BMP7): 1900 pM
koff (BMP7): 0.0015 s⁻¹
kon (BMP7): 820000 M⁻¹ s⁻¹
Kd (BMP10 [6]): 31 pM
koff (BMP10 [6]): 0.00094 s⁻¹
kon (BMP10 [6]): 3e+07 M⁻¹ s⁻¹
Kd (GDF3): 5900 pM
koff (GDF3): 0.082 s⁻¹
kon (GDF3): 1.4e+07 M⁻¹ s⁻¹
Kd (GDF5): 70 pM
koff (GDF5): 0.00083 s⁻¹
kon (GDF5): 1.2e+07 M⁻¹ s⁻¹
Kd (GDF6): 1600 pM
koff (GDF6): 0.00045 s⁻¹
kon (GDF6): 280000 M⁻¹ s⁻¹
Kd (GDF7): 52 pM
koff (GDF7): 0.0004 s⁻¹
kon (GDF7): 7.5e+06 M⁻¹ s⁻¹
Kd (GDF8): 310 pM
koff (GDF8): 0.00092 s⁻¹
kon (GDF8): 3e+06 M⁻¹ s⁻¹
Kd (GDF11): 66 pM
koff (GDF11): 0.0011 s⁻¹
kon (GDF11): 1.6e+07 M⁻¹ s⁻¹
Kd (BMP9): > 33000 pM
B2: ActRIIB-Fc:ALK3-Fc heterodimer (Fc fusion)
chain 1: GRGEAETRECIYYNANWELERTNQSGLERCEGEQDKRLHCYASWRNSSGTIELVKKGCWLDDFNCYDRQECVATEENPQVYFCCCEGNFCNERFTHLPEAGGPEVTYEPPPTAPTGGGTHTCPPCPAPELLGGPSVFLFPPKPKDTLMISRTPEVTCVVVDVSHEDPEVKFNWYVDGVEVHNAKTKPREEQYNSTYRVVSVLTVLHQDWLNGKEYKCKVSNKALPAPIEKTISKAKGQPREPQVYTLPPSRKEMTKNQVSLTCLVKGFYPSDIAVEWESNGQPENNYKTTPPVLKSDGSFFLYSKLTVDKSRWQQGNVFSCSVMHEALHNHYTQKSLSLSPGK
chain 2: GAQNLDSMLHGTGMKSDSDQKKSENGVTLAPEDTLPFLKCYCSGHCPDDAINNTCITNGHCFAIIEEDDQGETTLASGCMKYEGSDFQCKDSPKAQLRRTIECCRTNLCNQYLQPTLPPVVIGPFFDGSIRTGGGTHTCPPCPAPELLGGPSVFLFPPKPKDTLMISRTPEVTCVVVDVSHEDPEVKFNWYVDGVEVHNAKTKPREEQYNSTYRVVSVLTVLHQDWLNGKEYKCKVSNKALPAPIEKTISKAKGQPREPQVYTLPPSREEMTKNQVSLTCLVKGFYPSDIAVEWESNGQPENNYDTTPPVLDSDGSFFLYSDLTVDKSRWQQGNVFSCSVMHEALHNHYTQKSLSLSPG
notes: C-terminal Lys optional; also called ActRIIB-Fc:ALK3-Fc heterodimeric complex
